Test results published in article PMC6443348, “Protein denaturation at the air-water interface and how to prevent it” (eLife, 2019).

Biological target: T1, fatty acid synthase (FAS) from Saccharomyces cerevisiae, beta subunit (forms the beta-domes) (Saccharomyces cerevisiae, UniProt P07149 1-2051)
T1 construct: Fatty acid synthase subunit beta, Saccharomyces cerevisiae; also called yeast FAS
Assay: cryo-EM structure; single-particle cryo-EM of purified FAS complex (0.2 mg/ml) on hydrophilized graphene grids; maps at 4.8 Å (C1) and 4.0 Å (D3 symmetry)
Details: both partners purified

T1 sequence (P07149 whole entry): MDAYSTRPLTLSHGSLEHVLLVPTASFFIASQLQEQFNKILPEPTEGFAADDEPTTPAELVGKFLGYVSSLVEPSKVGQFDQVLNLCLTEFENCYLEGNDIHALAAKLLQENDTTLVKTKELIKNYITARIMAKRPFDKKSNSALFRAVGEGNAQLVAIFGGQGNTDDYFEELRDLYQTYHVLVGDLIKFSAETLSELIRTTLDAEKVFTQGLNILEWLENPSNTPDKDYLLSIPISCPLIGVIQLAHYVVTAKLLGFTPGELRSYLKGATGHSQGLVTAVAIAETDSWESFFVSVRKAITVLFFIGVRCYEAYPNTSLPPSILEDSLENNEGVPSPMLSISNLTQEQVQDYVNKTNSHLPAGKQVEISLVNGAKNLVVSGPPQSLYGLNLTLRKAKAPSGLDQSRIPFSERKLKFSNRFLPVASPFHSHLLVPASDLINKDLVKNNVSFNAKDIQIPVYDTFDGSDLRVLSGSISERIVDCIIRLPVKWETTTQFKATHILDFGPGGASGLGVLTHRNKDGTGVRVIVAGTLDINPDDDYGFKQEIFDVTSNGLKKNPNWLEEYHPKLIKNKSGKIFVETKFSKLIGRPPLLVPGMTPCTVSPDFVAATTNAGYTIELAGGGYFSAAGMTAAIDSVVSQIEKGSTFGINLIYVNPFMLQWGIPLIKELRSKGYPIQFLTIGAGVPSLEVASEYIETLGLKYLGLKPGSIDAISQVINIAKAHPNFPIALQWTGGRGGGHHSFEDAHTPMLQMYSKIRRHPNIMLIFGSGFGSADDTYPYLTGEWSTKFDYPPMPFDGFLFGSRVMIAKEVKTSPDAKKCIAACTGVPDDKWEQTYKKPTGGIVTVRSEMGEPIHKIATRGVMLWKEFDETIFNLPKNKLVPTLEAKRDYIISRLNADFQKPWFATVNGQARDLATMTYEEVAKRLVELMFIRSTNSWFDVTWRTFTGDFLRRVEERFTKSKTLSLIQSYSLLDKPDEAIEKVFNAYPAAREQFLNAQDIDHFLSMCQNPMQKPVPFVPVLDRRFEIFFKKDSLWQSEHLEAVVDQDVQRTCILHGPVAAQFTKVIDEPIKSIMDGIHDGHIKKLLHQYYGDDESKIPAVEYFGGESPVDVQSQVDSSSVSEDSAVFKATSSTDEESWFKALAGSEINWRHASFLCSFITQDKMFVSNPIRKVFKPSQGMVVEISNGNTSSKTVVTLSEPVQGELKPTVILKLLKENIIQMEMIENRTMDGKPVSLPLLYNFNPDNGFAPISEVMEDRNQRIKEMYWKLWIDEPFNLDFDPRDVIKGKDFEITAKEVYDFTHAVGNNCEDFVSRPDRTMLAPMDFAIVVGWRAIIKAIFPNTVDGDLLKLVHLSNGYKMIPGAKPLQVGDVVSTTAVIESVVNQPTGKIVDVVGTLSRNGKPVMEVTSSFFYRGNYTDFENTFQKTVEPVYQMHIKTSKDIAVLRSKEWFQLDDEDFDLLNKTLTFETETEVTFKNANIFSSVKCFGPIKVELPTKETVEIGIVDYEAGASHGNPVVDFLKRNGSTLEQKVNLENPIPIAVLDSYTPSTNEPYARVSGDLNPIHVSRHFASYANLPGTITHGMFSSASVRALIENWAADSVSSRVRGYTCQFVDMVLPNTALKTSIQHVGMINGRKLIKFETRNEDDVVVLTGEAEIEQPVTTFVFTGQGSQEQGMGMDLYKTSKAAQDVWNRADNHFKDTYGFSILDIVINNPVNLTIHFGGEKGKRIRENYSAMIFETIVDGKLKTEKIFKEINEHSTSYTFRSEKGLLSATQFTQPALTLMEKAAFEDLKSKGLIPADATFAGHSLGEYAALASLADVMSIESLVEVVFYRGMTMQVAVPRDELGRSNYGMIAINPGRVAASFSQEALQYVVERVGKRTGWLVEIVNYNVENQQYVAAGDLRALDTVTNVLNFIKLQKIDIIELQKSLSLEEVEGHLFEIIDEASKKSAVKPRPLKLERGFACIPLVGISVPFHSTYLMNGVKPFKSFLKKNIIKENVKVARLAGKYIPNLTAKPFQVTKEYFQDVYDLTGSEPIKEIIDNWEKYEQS

- binding result: binds
B1: fatty acid synthase (FAS) from Saccharomyces cerevisiae, alpha subunit (forms the alpha wheel) (natural protein, UniProt P19097 1-1887, looked up)
chain: MKPEVEQELAHILLTELLAYQFASPVRWIETQDVFLKDFNTERVVEIGPSPTLAGMAQRTLKNKYESYDAALSLHREILCYSKDAKEIYYTPDPSELAAKEEPAKEEAPAPTPAASAPAPAAAAPAPVAAAAPAAAAAEIADEPVKASLLLHVLVAHKLKKSLDSIPMSKTIKDLVGGKSTVQNEILGDLGKEFGTTPEKPEETPLEELAETFQDTFSGALGKQSSSLLSRLISSKMPGGFTITVARKYLQTRWGLPSGRQDGVLLVALSNEPAARLGSEADAKAFLDSMAQKYASIVGVDLSSAASASGAAGAGAAAGAAMIDAGALEEITKDHKVLARQQLQVLARYLKMDLDNGERKFLKEKDTVAELQAQLDYLNAELGEFFVNGVATSFSRKKARTFDSSWNWAKQSLLSLYFEIIHGVLKNVDREVVSEAINIMNRSNDALIKFMEYHISNTDETKGENYQLVKTLGEQLIENCKQVLDVDPVYKDVAKPTGPKTAIDKNGNITYSEEPREKVRKLSQYVQEMALGGPITKESQPTIEEDLTRVYKAISAQADKQDISSSTRVEFEKLYSDLMKFLESSKEIDPSQTTQLAGMDVEDALDKDSTKEVASLPNKSTISKTVSSTIPRETIPFLHLRKKTPAGDWKYDRQLSSLFLDGLEKAAFNGVTFKDKYVLITGAGKGSIGAEVLQGLLQGGAKVVVTTSRFSKQVTDYYQSIYAKYGAKGSTLIVVPFNQGSKQDVEALIEFIYDTEKNGGLGWDLDAIIPFAAIPEQGIELEHIDSKSEFAHRIMLTNILRMMGCVKKQKSARGIETRPAQVILPMSPNHGTFGGDGMYSESKLSLETLFNRWHSESWANQLTVCGAIIGWTRGTGLMSANNIIAEGIEKMGVRTFSQKEMAFNLLGLLTPEVVELCQKSPVMADLNGGLQFVPELKEFTAKLRKELVETSEVRKAVSIETALEHKVVNGNSADAAYAQVEIQPRANIQLDFPELKPYKQVKQIAPAELEGLLDLERVIVVTGFAEVGPWGSARTRWEMEAFGEFSLEGCVEMAWIMGFISYHNGNLKGRPYTGWVDSKTKEPVDDKDVKAKYETSILEHSGIRLIEPELFNGYNPEKKEMIQEVIVEEDLEPFEASKETAEQFKHQHGDKVDIFEIPETGEYSVKLLKGATLYIPKALRFDRLVAGQIPTGWNAKTYGISDDIISQVDPITLFVLVSVVEAFIASGITDPYEMYKYVHVSEVGNCSGSGMGGVSALRGMFKDRFKDEPVQNDILQESFINTMSAWVNMLLISSSGPIKTPVGACATSVESVDIGVETILSGKARICIVGGYDDFQEEGSFEFGNMKATSNTLEEFEHGRTPAEMSRPATTTRNGFMEAQGAGIQIIMQADLALKMGVPIYGIVAMAATATDKIGRSVPAPGKGILTTAREHHSSVKYASPNLNMKYRKRQLVTREAQIKDWVENELEALKLEAEEIPSEDQNEFLLERTREIHNEAESQLRAAQQQWGNDFYKRDPRIAPLRGALATYGLTIDDLGVASFHGTSTKANDKNESATINEMMKHLGRSEGNPVIGVFQKFLTGHPKGAAGAWMMNGALQILNSGIIPGNRNADNVDKILEQFEYVLYPSKTLKTDGVRAVSITSFGFGQKGGQAIVVHPDYLYGAITEDRYNEYVAKVSAREKSAYKFFHNGMIYNKLFVSKEHAPYTDELEEDVYLDPLARVSKDKKSGSLTFNSKNIQSKDSYINANTIETAKMIENMTKEKVSNGGVGVDVELITSINVENDTFIERNFTPQEIEYCSAQPSVQSSFAGTWSAKEAVFKSLGVKSLGGGAALKDIEIVRVNKNAPAVELHGNAKKAAEEAGVTDVKVSISHDDLQAVAVAVSTKK
notes: Fatty acid synthase subunit alpha, Saccharomyces cerevisiae; also called yeast FAS
